Results reported in paper PMC4721548, “Conformational heterogeneity of the Roc domains in C. tepidum Roc–COR and implications for human LRRK2 Parkinson mutations” (Bioscience Reports, 2015).

Key:
[1] = system: T1, Nc1nc2c(ncn2[C@@H]2O[C@H](COP(=O)(O)OP(=O)(O)OP(=O)(O)O)[C@@H](O)[C@H]2O)c(=O)[nH]1; test: multiple turnover radioactive charcoal GTPase assay, Michaelis-Menten fit; assay type: biochemical, C. tepidum; details: 100 nM protein, 50 mM NaCl, 20 mM Tris/HCl, 10 mM MgCl2, 1 mM DTT, 0.5 mg/ml BSA, pH 7.5, 25°C, labelled compound (gamma-32P)
T1 construct: Roc-COR-kinase fragment, AA 1334-2147, N-terminal His-tag, expressed in Sf9 cells, Ni-NTA purified

[2] = system: T1, Nc1nc2c(ncn2[C@@H]2O[C@H](COP(=O)(O)OP(=O)(O)OP(=O)(O)O)[C@@H](O)[C@H]2O)c(=O)[nH]1; test: as above; assay type: biochemical, Chlorobaculum tepidum; details: 100 nM protein, 50 mM NaCl, 20 mM Tris/HCl, 10 mM MgCl2, 1 mM DTT, 0.5 mg/ml BSA, pH 7.5, 25°C, labelled compound (gamma-32P)

Chain of LRRK2 Roc-COR-kinase fragment (Homo sapiens; R1441C) (chain, as listed by the source R1441C): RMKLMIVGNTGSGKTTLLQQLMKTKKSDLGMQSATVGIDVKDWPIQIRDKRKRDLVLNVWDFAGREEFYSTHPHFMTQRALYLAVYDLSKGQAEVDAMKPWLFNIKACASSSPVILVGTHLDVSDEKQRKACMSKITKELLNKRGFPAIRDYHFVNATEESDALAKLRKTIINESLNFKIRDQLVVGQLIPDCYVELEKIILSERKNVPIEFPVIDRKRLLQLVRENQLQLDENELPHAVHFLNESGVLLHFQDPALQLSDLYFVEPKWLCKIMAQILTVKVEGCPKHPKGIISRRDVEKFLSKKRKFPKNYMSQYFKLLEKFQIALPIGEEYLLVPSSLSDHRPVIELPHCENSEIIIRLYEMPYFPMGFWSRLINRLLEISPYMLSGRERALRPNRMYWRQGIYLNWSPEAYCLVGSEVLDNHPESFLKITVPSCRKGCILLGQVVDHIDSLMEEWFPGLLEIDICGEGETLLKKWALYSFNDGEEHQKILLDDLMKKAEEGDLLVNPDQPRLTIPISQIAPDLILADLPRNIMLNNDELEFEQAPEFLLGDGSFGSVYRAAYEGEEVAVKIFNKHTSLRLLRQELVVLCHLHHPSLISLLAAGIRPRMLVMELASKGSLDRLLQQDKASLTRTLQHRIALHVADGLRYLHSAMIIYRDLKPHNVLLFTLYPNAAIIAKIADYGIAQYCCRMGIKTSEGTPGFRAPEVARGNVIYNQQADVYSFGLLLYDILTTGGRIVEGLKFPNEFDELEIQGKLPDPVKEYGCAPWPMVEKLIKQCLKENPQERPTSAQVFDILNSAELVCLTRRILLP
Chain of LRRK2 Roc-COR-kinase fragment (Homo sapiens) (chain, as listed by the source): as the sequence (chain, as listed by the source R1441C) above, with C108R counted along it

Substance	Km [1] [µM]	kcat [1] [s⁻¹]	Km [2] [µM]	kcat [2] [s⁻¹]
LRRK2 Roc-COR-kinase fragment (Homo sapiens)	343	0.013		
LRRK2 Roc-COR-kinase fragment (Homo sapiens; R1441C)			541	0.00617
